Literature values, collected in PMC3433420.
Like-named read-outs stand apart in the source and are kept apart here.

Columns and labels:
Details in all cases: cited from earlier work
PIK3R2-N (Homo sapiens) [1] = biological target: PIK3R2-N (Homo sapiens) (UniProt O00459)
PLCG1-C (Homo sapiens) [2] = biological target: PLCG1-C (Homo sapiens) (UniProt P19174)
NCK2 (Homo sapiens) [3] = biological target: NCK2 (Homo sapiens) (UniProt O43639)
RASA1-N (Homo sapiens) [4] = biological target: RASA1-N (Homo sapiens) (UniProt P20936)
Sequence of RASA1-N (Homo sapiens) (P20936 176-446): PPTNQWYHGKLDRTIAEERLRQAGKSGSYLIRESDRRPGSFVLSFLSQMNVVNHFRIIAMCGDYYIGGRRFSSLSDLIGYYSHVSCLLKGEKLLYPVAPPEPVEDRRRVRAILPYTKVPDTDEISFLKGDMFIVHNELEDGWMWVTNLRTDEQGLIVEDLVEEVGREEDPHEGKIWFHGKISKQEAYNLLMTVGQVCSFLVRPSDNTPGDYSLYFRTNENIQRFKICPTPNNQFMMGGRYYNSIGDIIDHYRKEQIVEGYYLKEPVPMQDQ

ABL2 (Homo sapiens) [5] = biological target: ABL2 (Homo sapiens) (UniProt P42684)
Sequence of ABL2 (Homo sapiens) (P42684 168-268): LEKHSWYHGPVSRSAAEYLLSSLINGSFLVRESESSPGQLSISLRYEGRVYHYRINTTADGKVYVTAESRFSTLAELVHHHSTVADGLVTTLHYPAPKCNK

CRKL (Homo sapiens) [6] = biological target: CRKL (Homo sapiens) (UniProt P46109)
Sequence of CRKL (Homo sapiens) (P46109 9-107): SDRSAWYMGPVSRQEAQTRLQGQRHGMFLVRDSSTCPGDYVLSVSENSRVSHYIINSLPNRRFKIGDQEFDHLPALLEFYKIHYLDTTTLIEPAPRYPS

RASA1-N (Homo sapiens) [7] = biological target: RASA1-N (Homo sapiens) (UniProt P20936); remark: listed apart in the source
PIK3R3-NC (Homo sapiens) [8] = biological target: PIK3R3-NC (Homo sapiens) (UniProt Q92569)
SYK-NC (Homo sapiens) [9] = biological target: SYK-NC (Homo sapiens) (UniProt P43405)
SLA (Homo sapiens) [10] = biological target: SLA (Homo sapiens) (UniProt Q13239)
Sequence of SLA (Homo sapiens) (Q13239 79-180): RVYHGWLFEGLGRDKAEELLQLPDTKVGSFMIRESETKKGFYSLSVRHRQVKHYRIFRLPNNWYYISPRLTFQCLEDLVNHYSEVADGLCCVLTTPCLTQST

ABL2 (Homo sapiens) [11] = biological target: ABL2 (Homo sapiens) (UniProt P42684); remark: listed apart in the source
PTPN11-N (Homo sapiens) = PTPN11-N (Homo sapiens) (UniProt Q06124)
VAV2 (Homo sapiens) [12] = biological target: VAV2 (Homo sapiens) (UniProt P52735)
Sequence of VAV2 (Homo sapiens) (P52735 668-772): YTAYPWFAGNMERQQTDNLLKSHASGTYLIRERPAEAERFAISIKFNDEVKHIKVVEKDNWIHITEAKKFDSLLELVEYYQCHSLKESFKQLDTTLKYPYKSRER

VAV2 (Homo sapiens) [13] = biological target: VAV2 (Homo sapiens) (UniProt P52735); remark: listed apart in the source
VAV1 (Homo sapiens) [14] = biological target: VAV1 (Homo sapiens) (UniProt P15498)
Sequence of VAV1 (Homo sapiens) (P15498 666-770): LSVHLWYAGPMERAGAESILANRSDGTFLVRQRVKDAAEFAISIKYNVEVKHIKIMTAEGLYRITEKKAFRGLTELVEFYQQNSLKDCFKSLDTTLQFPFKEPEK

VAV3 (Homo sapiens) = VAV3 (Homo sapiens) (UniProt Q9UKW4)
PLCG1-NC (Homo sapiens) [15] = biological target: PLCG1-NC (Homo sapiens) (UniProt P19174)
Sequence of PLCG1-NC (Homo sapiens) (P19174 545-761): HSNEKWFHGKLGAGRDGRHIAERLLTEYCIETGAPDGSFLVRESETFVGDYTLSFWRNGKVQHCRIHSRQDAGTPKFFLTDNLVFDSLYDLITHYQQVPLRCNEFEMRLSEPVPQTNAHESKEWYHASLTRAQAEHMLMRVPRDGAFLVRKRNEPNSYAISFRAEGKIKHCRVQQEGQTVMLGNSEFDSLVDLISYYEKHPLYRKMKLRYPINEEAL

CRK (Homo sapiens) [16] = biological target: CRK (Homo sapiens) (UniProt P46108)
Sequence of CRK (Homo sapiens) (P46108 8-123): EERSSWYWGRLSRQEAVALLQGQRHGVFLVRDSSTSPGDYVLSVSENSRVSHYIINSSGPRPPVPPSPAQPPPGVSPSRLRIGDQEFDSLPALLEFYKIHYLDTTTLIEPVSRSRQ

BCAR3 (Homo sapiens) = BCAR3 (Homo sapiens) (UniProt O75815)
Sequence of BCAR3 (Homo sapiens) (O75815 149-258): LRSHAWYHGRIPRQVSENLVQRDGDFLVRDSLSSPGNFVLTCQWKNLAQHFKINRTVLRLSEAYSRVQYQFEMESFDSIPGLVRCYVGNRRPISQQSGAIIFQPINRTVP

PIK3R3-N (Homo sapiens) = PIK3R3-N (Homo sapiens) (UniProt Q92569)
PLCG2-NC (Homo sapiens) = PLCG2-NC (Homo sapiens) (UniProt P16885)
Sequence of PLCG2-NC (Homo sapiens) (P16885 527-740): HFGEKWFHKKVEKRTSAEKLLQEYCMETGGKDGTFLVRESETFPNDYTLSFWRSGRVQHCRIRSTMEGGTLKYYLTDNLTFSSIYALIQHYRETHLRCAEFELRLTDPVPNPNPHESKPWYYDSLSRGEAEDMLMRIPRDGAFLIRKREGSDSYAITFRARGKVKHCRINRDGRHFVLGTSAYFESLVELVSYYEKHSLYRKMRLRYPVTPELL

LYN (Homo sapiens) = LYN (Homo sapiens) (UniProt P07948)
TNS3 (Homo sapiens) = TNS3 (Homo sapiens) (UniProt Q68CZ2)
Sequence of TNS3 (Homo sapiens) (Q68CZ2 1167-1287): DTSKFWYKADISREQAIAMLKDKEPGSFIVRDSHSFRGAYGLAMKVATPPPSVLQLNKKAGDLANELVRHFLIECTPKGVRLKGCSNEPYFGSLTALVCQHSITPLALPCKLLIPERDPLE

PIK3R1-NC (Homo sapiens) = PIK3R1-NC (Homo sapiens) (UniProt P27986)
SH2D2A (Homo sapiens) = SH2D2A (Homo sapiens) (UniProt Q9NP31)
Sequence of SH2D2A (Homo sapiens) (Q9NP31 90-191): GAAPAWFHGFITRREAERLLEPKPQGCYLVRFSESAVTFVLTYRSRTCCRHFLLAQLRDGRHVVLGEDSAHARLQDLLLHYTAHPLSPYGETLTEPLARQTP

PLCG1-C (Homo sapiens) [17] = biological target: PLCG1-C (Homo sapiens) (UniProt P19174); remark: listed apart in the source
BMX (Homo sapiens) = BMX (Homo sapiens) (UniProt P51813)
Sequence of BMX (Homo sapiens) (P51813 291-397): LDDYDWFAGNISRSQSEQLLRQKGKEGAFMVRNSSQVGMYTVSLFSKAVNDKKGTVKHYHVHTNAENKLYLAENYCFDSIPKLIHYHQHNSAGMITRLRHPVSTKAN

PIK3R3-NC (Homo sapiens) [18] = biological target: PIK3R3-NC (Homo sapiens) (UniProt Q92569); remark: listed apart in the source
FGR (Homo sapiens) = FGR (Homo sapiens) (UniProt P09769)
BLK (Homo sapiens) = BLK (Homo sapiens) (UniProt P51451)
Sequence of BLK (Homo sapiens) (P51451 119-225): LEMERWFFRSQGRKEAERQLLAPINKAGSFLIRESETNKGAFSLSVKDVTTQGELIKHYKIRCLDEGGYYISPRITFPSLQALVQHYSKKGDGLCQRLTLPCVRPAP

PIK3R2-NC (Homo sapiens) = PIK3R2-NC (Homo sapiens) (UniProt O00459)
ITK (Homo sapiens) = ITK (Homo sapiens) (UniProt Q08881)
Sequence of ITK (Homo sapiens) (Q08881 234-343): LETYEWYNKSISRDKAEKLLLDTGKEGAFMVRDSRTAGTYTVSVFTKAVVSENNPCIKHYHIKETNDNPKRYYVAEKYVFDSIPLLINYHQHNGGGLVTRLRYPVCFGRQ

GRB2 (Homo sapiens) = GRB2 (Homo sapiens) (UniProt P62993)
Sequence of GRB2 (Homo sapiens) (P62993 55-157): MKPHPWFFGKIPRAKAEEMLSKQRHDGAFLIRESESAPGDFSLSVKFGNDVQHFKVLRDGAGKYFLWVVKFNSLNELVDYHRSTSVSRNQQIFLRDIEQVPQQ

PIK3R1-N (Homo sapiens) = PIK3R1-N (Homo sapiens) (UniProt P27986)
ABL2 (Homo sapiens) [19] = biological target: ABL2 (Homo sapiens) (UniProt P42684); remark: listed apart in the source
HCK (Homo sapiens) = HCK (Homo sapiens) (UniProt P08631)
Sequence of HCK (Homo sapiens) (P08631 139-246): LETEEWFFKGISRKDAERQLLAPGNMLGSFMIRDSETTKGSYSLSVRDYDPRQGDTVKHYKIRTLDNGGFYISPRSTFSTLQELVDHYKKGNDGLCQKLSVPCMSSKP

VAV1 (Homo sapiens) [20] = biological target: VAV1 (Homo sapiens) (UniProt P15498); remark: listed apart in the source
SRC (Homo sapiens) = SRC (Homo sapiens) (UniProt P12931)
VAV2 (Homo sapiens) [21] = biological target: VAV2 (Homo sapiens) (UniProt P52735); remark: listed apart in the source
TENC1 (Homo sapiens) = TENC1 (Homo sapiens) (UniProt Q63HR2)
Sequence of TENC1 (Homo sapiens) (Q63HR2 1135-1252): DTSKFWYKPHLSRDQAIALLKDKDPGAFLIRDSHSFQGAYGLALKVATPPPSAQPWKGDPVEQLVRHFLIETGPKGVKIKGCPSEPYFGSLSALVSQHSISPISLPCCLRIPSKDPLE

NCK2 (Homo sapiens) [22] = biological target: NCK2 (Homo sapiens) (UniProt O43639); remark: listed apart in the source
PIK3R3-C (Homo sapiens) = PIK3R3-C (Homo sapiens) (UniProt Q92569)
PLCG1-NC (Homo sapiens) [23] = biological target: PLCG1-NC (Homo sapiens) (UniProt P19174); remark: listed apart in the source
GRAP2 (Homo sapiens) = GRAP2 (Homo sapiens) (UniProt O75791)
Sequence of GRAP2 (Homo sapiens) (O75791 53-154): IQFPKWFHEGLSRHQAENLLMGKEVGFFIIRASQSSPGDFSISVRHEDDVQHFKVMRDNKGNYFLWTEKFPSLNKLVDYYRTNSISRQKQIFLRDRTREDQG

SLA (Homo sapiens) [24] = biological target: SLA (Homo sapiens) (UniProt Q13239); remark: listed apart in the source
CRKL (Homo sapiens) [25] = biological target: CRKL (Homo sapiens) (UniProt P46109); remark: listed apart in the source
CRK (Homo sapiens) [26] = biological target: CRK (Homo sapiens) (UniProt P46108); remark: listed apart in the source
PIK3R2-N (Homo sapiens) [27] = biological target: PIK3R2-N (Homo sapiens) (UniProt O00459); remark: listed apart in the source
PTPN11-NC (Homo sapiens) = PTPN11-NC (Homo sapiens) (UniProt Q06124)
GRB7 (Homo sapiens) = GRB7 (Homo sapiens) (UniProt Q14451)
Sequence of GRB7 (Homo sapiens) (Q14451 426-532): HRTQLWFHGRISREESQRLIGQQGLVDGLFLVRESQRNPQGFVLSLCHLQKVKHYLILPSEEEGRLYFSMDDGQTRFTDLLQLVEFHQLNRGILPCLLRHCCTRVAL

RASA1-N (Homo sapiens) [28] = biological target: RASA1-N (Homo sapiens) (UniProt P20936); remark: listed apart in the source
SYK-NC (Homo sapiens) [29] = biological target: SYK-NC (Homo sapiens) (UniProt P43405); remark: listed apart in the source
ABL1 (Homo sapiens) = ABL1 (Homo sapiens) (UniProt P00519)
Sequence of ABL1 (Homo sapiens) (P00519 122-222): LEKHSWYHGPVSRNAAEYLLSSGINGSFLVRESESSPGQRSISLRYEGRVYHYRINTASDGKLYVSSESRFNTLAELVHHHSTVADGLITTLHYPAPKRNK

SH3BP2 (Homo sapiens) = SH3BP2 (Homo sapiens) (UniProt P78314)

Sequence of PLCG1-C (Homo sapiens) (P19174 545-761): as the sequence (P19174 545-761) above
Sequence of NCK2 (Homo sapiens) (O43639 280-380): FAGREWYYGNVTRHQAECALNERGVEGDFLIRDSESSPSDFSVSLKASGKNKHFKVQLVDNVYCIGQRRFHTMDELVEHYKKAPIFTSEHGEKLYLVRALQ
Sequence of PIK3R2-N (Homo sapiens) (O00459 325-721): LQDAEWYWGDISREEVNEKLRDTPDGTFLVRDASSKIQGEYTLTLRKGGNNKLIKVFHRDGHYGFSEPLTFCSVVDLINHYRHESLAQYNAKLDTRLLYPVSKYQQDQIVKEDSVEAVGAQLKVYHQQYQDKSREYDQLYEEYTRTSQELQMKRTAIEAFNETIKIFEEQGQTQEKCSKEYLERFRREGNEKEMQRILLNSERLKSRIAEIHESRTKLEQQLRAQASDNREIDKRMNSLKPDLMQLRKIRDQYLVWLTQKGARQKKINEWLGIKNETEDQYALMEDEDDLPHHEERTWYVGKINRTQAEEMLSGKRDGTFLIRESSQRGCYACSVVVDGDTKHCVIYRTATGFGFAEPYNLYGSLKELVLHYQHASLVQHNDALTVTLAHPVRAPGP

Question: Which results are given for …pYLNPVEENd?
Answer: apparent Kd (screen) (PIK3R2-N (Homo sapiens) [1]): 2 µM; apparent Kd (screen) (PLCG1-C (Homo sapiens) [2]): 2 µM; apparent Kd (screen) (NCK2 (Homo sapiens) [3]): 2 µM; apparent Kd (screen) (RASA1-N (Homo sapiens) [4]): 0.983 µM; apparent Kd (screen) (ABL2 (Homo sapiens) [5]): 0.283 µM; apparent Kd (screen) (CRKL (Homo sapiens) [6]): 2 µM; apparent Kd (screen) (RASA1-N (Homo sapiens) [7]): 2 µM; apparent Kd (screen) (PIK3R3-NC (Homo sapiens) [8]): 2 µM; apparent Kd (screen) (SYK-NC (Homo sapiens) [9]): 2 µM; apparent Kd (screen) (SLA (Homo sapiens) [10]): 2 µM; apparent Kd (screen) (ABL2 (Homo sapiens) [11]): 0.316 µM; apparent Kd (screen) (PTPN11-N (Homo sapiens)): 2 µM; apparent Kd (screen) (VAV2 (Homo sapiens) [12]): 0.1 µM; apparent Kd (screen) (VAV2 (Homo sapiens) [13]): 2 µM; apparent Kd (screen) (VAV1 (Homo sapiens) [14]): 2 µM; apparent Kd (screen) (VAV3 (Homo sapiens)): 2 µM; apparent Kd (screen) (PLCG1-NC (Homo sapiens) [15]): 2 µM; apparent Kd (screen) (CRK (Homo sapiens) [16]): 2 µM

Question: What does the source list for …pYVNQPDVR?
Answer: apparent Kd (screen) (BCAR3 (Homo sapiens)): 1 µM; apparent Kd (screen) (PIK3R3-N (Homo sapiens)): 0.395 µM; apparent Kd (screen) (PLCG2-NC (Homo sapiens)): 1.28 µM; apparent Kd (screen) (LYN (Homo sapiens)): 2 µM; apparent Kd (screen) (TNS3 (Homo sapiens)): 0.765 µM; apparent Kd (screen) (PIK3R1-NC (Homo sapiens)): 0.741 µM; apparent Kd (screen) (SH2D2A (Homo sapiens)): 0.98 µM; apparent Kd (screen) (PLCG1-C (Homo sapiens) [17]): 1.93 µM; apparent Kd (screen) (BMX (Homo sapiens)): 0.52 µM; apparent Kd (screen) (PIK3R3-NC (Homo sapiens) [18]): 0.304 µM; apparent Kd (screen) (FGR (Homo sapiens)): 0.454 µM; apparent Kd (screen) (BLK (Homo sapiens)): 2 µM; apparent Kd (screen) (PIK3R2-NC (Homo sapiens)): 0.776 µM; apparent Kd (screen) (ITK (Homo sapiens)): 1.51 µM; apparent Kd (screen) (GRB2 (Homo sapiens)): 0.076 µM; apparent Kd (screen) (PIK3R1-N (Homo sapiens)): 0.508 µM; apparent Kd (screen) (ABL2 (Homo sapiens) [19]): 0.071 µM; apparent Kd (screen) (HCK (Homo sapiens)): 2 µM; apparent Kd (screen) (VAV1 (Homo sapiens) [20]): 0.206 µM; apparent Kd (screen) (SRC (Homo sapiens)): 2 µM; apparent Kd (screen) (VAV2 (Homo sapiens) [21]): 0.226 µM; apparent Kd (screen) (TENC1 (Homo sapiens)): 0.565 µM; apparent Kd (screen) (NCK2 (Homo sapiens) [22]): 0.777 µM; apparent Kd (screen) (PIK3R3-C (Homo sapiens)): 1.22 µM; apparent Kd (screen) (PLCG1-NC (Homo sapiens) [23]): 2 µM; apparent Kd (screen) (GRAP2 (Homo sapiens)): 0.958 µM; apparent Kd (screen) (SLA (Homo sapiens) [24]): 2 µM; apparent Kd (screen) (CRKL (Homo sapiens) [25]): 2 µM; apparent Kd (screen) (CRK (Homo sapiens) [26]): 2 µM; apparent Kd (screen) (PIK3R2-N (Homo sapiens) [27]): 0.281 µM; apparent Kd (screen) (PTPN11-NC (Homo sapiens)): 0.877 µM; apparent Kd (screen) (GRB7 (Homo sapiens)): 2 µM; apparent Kd (screen) (RASA1-N (Homo sapiens) [28]): 0.675 µM; apparent Kd (screen) (SYK-NC (Homo sapiens) [29]): 0.973 µM; apparent Kd (screen) (ABL1 (Homo sapiens)): 0.157 µM; apparent Kd (screen) (SH3BP2 (Homo sapiens)): 0.406 µM
